From paper PMC9621694 (2022)

Assays:
Experiment in all cases: SPR
rsvfv_hal_1 = target: rsvfv_hal_1
rsvfv_hal_3 = target: rsvfv_hal_3
rsvfv_hal_2 = target: rsvfv_hal_2

B1: neutralizing antibody hRSV90 (antibody, V domains shown)
VH: EVQLVESGGGLVQPRRSLRLSCAASGFTFDDYTIHWVRQAPGKGLEWVSGITWNSGYIGYADSVKGRFTISRDNARNSLYLQMNSLRAEDTALYYCVRDAYVSGSDYYYYGLDVWGRGTLVTVSS
VL: EIVMTSSPATLSVSPGERVTLFCRASQSVISNLAWYQQKSGQAPRLLIYGASTRATGIPSRFSGSGSGTEFTLTISSLQSEDFAVYFCQQYNNWPLTFGGGTQVNVQ
Kd (rsvfv_hal_1): 900 nM | Kd (rsvfv_hal_3): 1300 nM | Kd (rsvfv_hal_2): 1000 nM
